Measurements taken from patent publication CN117551199A (HANGZHOU RONGGU BIOTECHNOLOGY CO LTD, dated 2024).

Molecular target: T1, CLDN18.2 (Claudin18.2) expressed on cells (UniProt P56856-2 1-261)
T1 construct: whole, on cells; also called K562-CLDN18.2
T1 sequence (looked up): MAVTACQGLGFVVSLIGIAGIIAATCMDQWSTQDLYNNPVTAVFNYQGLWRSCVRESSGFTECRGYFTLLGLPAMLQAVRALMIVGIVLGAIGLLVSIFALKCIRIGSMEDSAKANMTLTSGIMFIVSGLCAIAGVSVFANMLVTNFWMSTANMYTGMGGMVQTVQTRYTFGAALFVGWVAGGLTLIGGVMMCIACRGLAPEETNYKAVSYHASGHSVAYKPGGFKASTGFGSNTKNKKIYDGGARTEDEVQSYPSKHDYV
Assay: flow cytometry on K562-CLDN18.2 cells, anti-Myc-Tag detection

B1: Claudin18.2纳米抗体 11C (VHH)
VHH: DVQLQESGGGSVQAGGSLRLSCAASGAIYMRNYMAWFRQVPGKEREGVAGISASSGRTYYDDSVKGRFTISQDNAKNTVYLQMNSLKPEDTAMYFCAADPFQVMIDTMRYWGQGTQVTVSS
notes: Bactrian camel VHH, made in a cell-free system and purified on His beads; detected through a Myc tag; also called Claudin18.2nb; not shown: N-terminal tag of the cell-free construct (8His-GSG and vector-derived residues, known only from primer DNA); amino acid; C-terminal Myc tag (detected with anti-Myc-Tag 9B11)
  binding result: binds

B2: Claudin18.2纳米抗体 2F (VHH)
VHH: QVQLVESGGGSVQAGGSLRLSCAGSGYVYPYYCMGWFRQAPGKERERVASIDRAGSQSYADSVKGRFTISKDNAKNTLYLQMGSLEPEDTAMYYCATDLGDGLWYSGCGTYRYWGQGTQVTVSS
notes: as for B1
  binding result: binds

B3: Claudin18.2纳米抗体 12B (VHH)
VHH: EVQLVESGGGSVQAGGSLRLSCAVSGYTYNLKYMGWFRQAPGKEREPVAFIYLGGDNQYYAPSVKDRFTISQDNAKNTVYLQMNSLKPDDTAMYYCAATTALLFLAQTSSWNYWGQGTQVTVSS
notes: Bactrian camel VHH, made in a cell-free system and purified on His beads; detected through a Myc tag; also called Claudin18.2nb; not shown: N-terminal tag of the cell-free construct (8His-GSG and vector-derived residues, known only from primer DNA); amino acid; C-terminal Myc tag (detected with anti-Myc antibody)
  binding result: binds

B4: Claudin18.2纳米抗体 10B (VHH)
VHH: EVQLVESGGGSVQAGGSLRLSCAASEQTYNRYCMGWFRQAPGKEREGVADINWRGIPNYSDSVKGRFTISQDHAKNTLYLQMNSLKPEDTAMYYCAARRGLPVVGCYDEYNIWGQGTQVTVSS
notes: as for B1
  binding result: binds
